Laboratory results published in patent US20220010021A1 (Sanofi, published 2022).
Residue numbers refer to the chain shown, from its start.

How the values were obtained:
[1] = target: human FGFR1c/KLB cell surface receptor complex on iLite FGF21 reporter cells (human, UniProt P11362 22-822; Q86Z14 1-1044); assay: cell-based or functional assay; on Mean E max (%): reference of the scale not given here
human beta-Klotho (KLB) = target: T1, human beta-Klotho (KLB) (human, UniProt Q86Z14 53-997); assay: BLI off-rate screen (Octet), Ab captured via Fc;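 further: antibody supernatants applied at 25 µg/mL, dissociation monitored over 1800 s in D-PBS with 0.1% BSA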
T1 construct: also called human KLB
T1 sequence (looked up): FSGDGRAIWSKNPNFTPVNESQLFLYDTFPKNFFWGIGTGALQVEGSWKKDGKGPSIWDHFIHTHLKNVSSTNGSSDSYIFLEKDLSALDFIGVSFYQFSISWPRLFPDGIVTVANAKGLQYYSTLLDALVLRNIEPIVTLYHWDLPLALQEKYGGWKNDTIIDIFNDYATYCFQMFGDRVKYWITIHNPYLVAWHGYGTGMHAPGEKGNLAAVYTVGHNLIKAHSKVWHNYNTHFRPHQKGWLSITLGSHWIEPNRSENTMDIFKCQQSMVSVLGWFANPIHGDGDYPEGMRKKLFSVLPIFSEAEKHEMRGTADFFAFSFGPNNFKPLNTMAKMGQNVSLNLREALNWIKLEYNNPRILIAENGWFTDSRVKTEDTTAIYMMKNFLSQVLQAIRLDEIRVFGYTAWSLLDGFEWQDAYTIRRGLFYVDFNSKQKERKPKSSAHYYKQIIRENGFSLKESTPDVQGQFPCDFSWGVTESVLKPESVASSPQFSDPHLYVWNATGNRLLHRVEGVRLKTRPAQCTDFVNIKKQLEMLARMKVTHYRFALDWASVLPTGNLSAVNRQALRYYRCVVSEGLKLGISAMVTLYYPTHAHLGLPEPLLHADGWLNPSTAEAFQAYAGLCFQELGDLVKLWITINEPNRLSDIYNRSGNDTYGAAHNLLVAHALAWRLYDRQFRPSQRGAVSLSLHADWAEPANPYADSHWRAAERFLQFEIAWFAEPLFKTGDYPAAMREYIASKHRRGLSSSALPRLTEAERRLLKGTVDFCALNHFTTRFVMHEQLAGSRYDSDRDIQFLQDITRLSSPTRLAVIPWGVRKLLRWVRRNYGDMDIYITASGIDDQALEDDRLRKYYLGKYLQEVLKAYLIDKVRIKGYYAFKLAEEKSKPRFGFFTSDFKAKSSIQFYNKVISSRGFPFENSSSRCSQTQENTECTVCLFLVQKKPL

Sequence of human FGFR1c/KLB cell surface receptor complex on iLite FGF21 reporter cells (P11362 22-822, chain 1 of 2): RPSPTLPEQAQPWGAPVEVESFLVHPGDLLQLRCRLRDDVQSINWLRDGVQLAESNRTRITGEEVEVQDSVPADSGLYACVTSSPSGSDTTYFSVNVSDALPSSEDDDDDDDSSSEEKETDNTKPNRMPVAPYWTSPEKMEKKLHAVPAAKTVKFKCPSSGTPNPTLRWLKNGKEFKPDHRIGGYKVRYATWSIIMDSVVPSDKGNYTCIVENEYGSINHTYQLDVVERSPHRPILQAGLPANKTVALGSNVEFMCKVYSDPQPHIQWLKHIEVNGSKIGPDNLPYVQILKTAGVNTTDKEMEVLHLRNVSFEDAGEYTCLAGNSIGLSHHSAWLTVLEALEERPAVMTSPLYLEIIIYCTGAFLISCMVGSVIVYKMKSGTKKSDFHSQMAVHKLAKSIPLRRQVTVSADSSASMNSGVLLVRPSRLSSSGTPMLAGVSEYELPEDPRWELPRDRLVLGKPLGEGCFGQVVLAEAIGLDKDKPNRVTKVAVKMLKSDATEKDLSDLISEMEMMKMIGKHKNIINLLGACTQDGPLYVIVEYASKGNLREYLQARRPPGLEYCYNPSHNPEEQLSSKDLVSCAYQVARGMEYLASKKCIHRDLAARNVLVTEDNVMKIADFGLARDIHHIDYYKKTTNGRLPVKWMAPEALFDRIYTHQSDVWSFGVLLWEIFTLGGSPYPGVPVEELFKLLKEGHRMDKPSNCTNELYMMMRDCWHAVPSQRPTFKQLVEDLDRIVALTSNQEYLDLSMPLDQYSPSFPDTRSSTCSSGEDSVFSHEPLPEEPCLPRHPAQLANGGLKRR
Sequence of human FGFR1c/KLB cell surface receptor complex on iLite FGF21 reporter cells (Q86Z14 whole entry, chain 2 of 2): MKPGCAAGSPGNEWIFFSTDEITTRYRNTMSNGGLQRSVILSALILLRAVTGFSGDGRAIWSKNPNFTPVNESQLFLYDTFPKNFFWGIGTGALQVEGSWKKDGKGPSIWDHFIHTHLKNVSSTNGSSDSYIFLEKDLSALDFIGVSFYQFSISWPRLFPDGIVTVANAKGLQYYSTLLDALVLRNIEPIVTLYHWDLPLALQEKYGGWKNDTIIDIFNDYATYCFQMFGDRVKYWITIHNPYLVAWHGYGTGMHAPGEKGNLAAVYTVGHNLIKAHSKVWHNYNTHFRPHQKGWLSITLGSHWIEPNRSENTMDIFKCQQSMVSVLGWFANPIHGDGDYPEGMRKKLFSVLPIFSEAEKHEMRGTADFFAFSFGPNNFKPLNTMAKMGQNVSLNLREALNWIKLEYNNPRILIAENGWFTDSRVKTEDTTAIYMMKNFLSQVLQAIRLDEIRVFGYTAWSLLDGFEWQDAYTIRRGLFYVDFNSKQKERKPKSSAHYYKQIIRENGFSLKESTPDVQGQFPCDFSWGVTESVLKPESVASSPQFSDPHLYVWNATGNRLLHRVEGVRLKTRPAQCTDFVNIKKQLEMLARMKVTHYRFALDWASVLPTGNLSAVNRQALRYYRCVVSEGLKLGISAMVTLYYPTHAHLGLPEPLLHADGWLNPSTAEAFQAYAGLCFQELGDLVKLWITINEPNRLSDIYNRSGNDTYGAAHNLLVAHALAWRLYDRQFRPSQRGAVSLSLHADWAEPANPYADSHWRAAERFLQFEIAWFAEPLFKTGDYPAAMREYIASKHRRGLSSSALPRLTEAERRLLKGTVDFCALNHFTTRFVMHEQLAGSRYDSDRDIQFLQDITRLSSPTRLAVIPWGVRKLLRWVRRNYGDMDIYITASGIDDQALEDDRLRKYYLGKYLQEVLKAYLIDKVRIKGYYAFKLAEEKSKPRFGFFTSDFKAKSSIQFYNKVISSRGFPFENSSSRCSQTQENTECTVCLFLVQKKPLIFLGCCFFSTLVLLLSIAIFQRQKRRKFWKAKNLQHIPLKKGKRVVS

B1: 16H7 variant, light chain G23D (antibody, human IgG4 S228P, lambda, V domains shown)
VH: not shown
VL: SYVLTQPPSVSVAPGQTARITCDGNNIGSESVHWYQQKPGQAPVLVVYDDSDRPSGIPERFSGSNSGNTATLTISRVEAGDEADYYCQVWDGNSDHVVFGGGTKLTVLG
notes: IgG4 backbone
Mean E max (%) [1]: 108%
Mean EC50 [1]: 0.104 nM
koff (human beta-Klotho (KLB)): 2.2e-05 s⁻¹

B2: 16H7 variant, light chain G23H (antibody, human IgG4 S228P, lambda, V domains shown)
VH: not shown
VL: B1 VL with D23H
notes: IgG4 backbone
Mean E max (%) [1]: 95%
Mean EC50 [1]: 0.096 nM
koff (human beta-Klotho (KLB)): 5.2e-06 s⁻¹

B3: 16H7 variant, light chain I27G (antibody, IgG4, V domains shown)
VH: not shown
VL: B1 VL with D23G, I27G
notes: IgG4 backbone; copies: 2 + 2
Mean E max (%) [1]: 111%
Mean EC50 [1]: 0.123 nM
koff (human beta-Klotho (KLB)): 3e-05 s⁻¹

B4: 16H7 variant, light chain G24M (antibody, human IgG4 S228P, lambda, V domains shown)
VH: not shown
VL: B1 VL with D23G, G24M
notes: IgG4 backbone
Mean E max (%) [1]: 109%
Mean EC50 [1]: 0.115 nM
koff (human beta-Klotho (KLB)): 4.8e-05 s⁻¹

B5: 16H7 variant, light chain N25E (antibody, human IgG4 S228P, lambda, V domains shown)
VH: not shown
VL: B1 VL with D23G, N25E
notes: IgG4 backbone
Mean E max (%) [1]: 106%
Mean EC50 [1]: 0.107 nM
koff (human beta-Klotho (KLB)): 3e-05 s⁻¹

B6: 16H7 variant, light chain G24R (antibody, human IgG4 S228P, lambda, V domains shown)
VH: not shown
VL: B1 VL with D23G, G24R
notes: IgG4 backbone
Mean E max (%) [1]: 98%
Mean EC50 [1]: 0.106 nM
koff (human beta-Klotho (KLB)): 1.5e-06 s⁻¹

B7: 16H7 variant, light chain G24F (antibody, human IgG4 S228P, lambda, V domains shown)
VH: not shown
VL: B1 VL with D23G, G24F
notes: IgG4 backbone
Mean E max (%) [1]: 107%
Mean EC50 [1]: 0.151 nM
koff (human beta-Klotho (KLB)): 2.3e-05 s⁻¹

B8: 16H7 variant, light chain G24H (antibody, human IgG4 S228P, lambda, V domains shown)
VH: not shown
VL: B1 VL with D23G, G24H
notes: IgG4 backbone
Mean E max (%) [1]: 99%
Mean EC50 [1]: 0.125 nM
koff (human beta-Klotho (KLB)): 2.7e-05 s⁻¹

B9: 16H7 variant, light chain I27E (antibody, human IgG4 S228P, lambda, V domains shown)
VH: not shown
VL: B1 VL with D23G, I27E
notes: IgG4 backbone
Mean E max (%) [1]: 98%
Mean EC50 [1]: 0.121 nM
koff (human beta-Klotho (KLB)): 4.6e-05 s⁻¹

B10: 16H7 variant, light chain I27S (antibody, human IgG4 S228P, lambda, V domains shown)
VH: not shown
VL: B1 VL with D23G, I27S
notes: IgG4 backbone
Mean E max (%) [1]: 106%
Mean EC50 [1]: 0.141 nM
koff (human beta-Klotho (KLB)): 4.9e-05 s⁻¹

B11: 16H7 variant, light chain G24V (antibody, human IgG4 S228P, lambda, V domains shown)
VH: not shown
VL: B1 VL with D23G, G24V
notes: IgG4 backbone
Mean E max (%) [1]: 102%
Mean EC50 [1]: 0.125 nM
koff (human beta-Klotho (KLB)): 8.5e-05 s⁻¹

B12: 16H7 variant, light chain G23F (antibody, human IgG4 S228P, lambda, V domains shown)
VH: not shown
VL: B1 VL with D23F
notes: IgG4 backbone
Mean E max (%) [1]: 98%
Mean EC50 [1]: 0.109 nM
koff (human beta-Klotho (KLB)): 5e-05 s⁻¹

B13: 16H7 variant, light chain G24K (antibody, human IgG4 S228P, lambda, V domains shown)
VH: not shown
VL: B1 VL with D23G, G24K
notes: IgG4 backbone
Mean E max (%) [1]: 102%
Mean EC50 [1]: 0.143 nM
koff (human beta-Klotho (KLB)): 3.9e-05 s⁻¹

B14: 16H7 variant, light chain N25C (antibody, human IgG4 S228P, lambda, V domains shown)
VH: not shown
VL: B1 VL with D23G, N25C
notes: IgG4 backbone
Mean E max (%) [1]: 110%
Mean EC50 [1]: 0.133 nM
koff (human beta-Klotho (KLB)): 3.6e-06 s⁻¹

B15: 16H7 variant, light chain G23P (antibody, human IgG4 S228P, lambda, V domains shown)
VH: not shown
VL: B1 VL with D23P
notes: IgG4 backbone
Mean E max (%) [1]: 101%
Mean EC50 [1]: 0.117 nM
koff (human beta-Klotho (KLB)): 3.8e-05 s⁻¹

B16: 16H7 variant, light chain G23N (antibody, human IgG4 S228P, lambda, V domains shown)
VH: not shown
VL: B1 VL with D23N
notes: IgG4 backbone
Mean E max (%) [1]: 100%
Mean EC50 [1]: 0.138 nM
koff (human beta-Klotho (KLB)): 2.7e-05 s⁻¹

B17: 16H7 variant, light chain G24W (antibody, human IgG4 S228P, lambda, V domains shown)
VH: not shown
VL: B1 VL with D23G, G24W
notes: IgG4 backbone
Mean E max (%) [1]: 110%
Mean EC50 [1]: 0.145 nM
koff (human beta-Klotho (KLB)): 3.7e-05 s⁻¹

B18: 16H7 variant, light chain N25A (antibody, human IgG4 S228P, lambda, V domains shown)
VH: not shown
VL: B1 VL with D23G, N25A
notes: IgG4 backbone
Mean E max (%) [1]: 96%
Mean EC50 [1]: 0.081 nM
koff (human beta-Klotho (KLB)): 1.6e-05 s⁻¹

B19: 16H7 variant, light chain G23Y (antibody, human IgG4 S228P, lambda, V domains shown)
VH: not shown
VL: B1 VL with D23Y
notes: IgG4 backbone
Mean E max (%) [1]: 107%
Mean EC50 [1]: 0.124 nM
koff (human beta-Klotho (KLB)): 4.2e-05 s⁻¹

B20: 16H7 variant, light chain G24I (antibody, human IgG4 S228P, lambda, V domains shown)
VH: not shown
VL: B1 VL with D23G, G24I
notes: IgG4 backbone
Mean E max (%) [1]: 109%
Mean EC50 [1]: 0.143 nM
koff (human beta-Klotho (KLB)): 2.7e-05 s⁻¹

B21: 16H7 variant, light chain G24E (antibody, human IgG4 S228P, lambda, V domains shown)
VH: not shown
VL: B1 VL with D23G, G24E
notes: IgG4 backbone
Mean E max (%) [1]: 112%
Mean EC50 [1]: 0.118 nM
koff (human beta-Klotho (KLB)): 2.7e-05 s⁻¹

B22: 16H7 variant, light chain G24Y (antibody, human IgG4 S228P, lambda, V domains shown)
VH: not shown
VL: B1 VL with D23G, G24Y
notes: IgG4 backbone
Mean E max (%) [1]: 107%
Mean EC50 [1]: 0.137 nM
koff (human beta-Klotho (KLB)): 4.1e-05 s⁻¹

B23: 16H7 variant, light chain G23I (antibody, human IgG4 S228P, lambda, V domains shown)
VH: not shown
VL: B1 VL with D23I
notes: IgG4 backbone
Mean E max (%) [1]: 99%
Mean EC50 [1]: 0.128 nM
koff (human beta-Klotho (KLB)): 2.9e-05 s⁻¹

B24: 16H7 variant, light chain G23T (antibody, human IgG4 S228P, lambda, V domains shown)
VH: not shown
VL: B1 VL with D23T
notes: IgG4 backbone
Mean E max (%) [1]: 112%
Mean EC50 [1]: 0.105 nM
koff (human beta-Klotho (KLB)): 1.5e-05 s⁻¹

B25: 16H7 variant, light chain I27K (antibody, IgG4, V domains shown)
VH: not shown
VL: B1 VL with D23G, I27K
notes: IgG4 backbone; copies: 2 + 2
Mean E max (%) [1]: 99%
Mean EC50 [1]: 0.127 nM
koff (human beta-Klotho (KLB)): 5.3e-05 s⁻¹

B26: 16H7 variant, light chain G23R (antibody, human IgG4 S228P, lambda, V domains shown)
VH: not shown
VL: B1 VL with D23R
notes: IgG4 backbone
Mean E max (%) [1]: 103%
Mean EC50 [1]: 0.135 nM
koff (human beta-Klotho (KLB)): 3.1e-05 s⁻¹

B27: 16H7 variant, light chain G23K (antibody, human IgG4 S228P, lambda, V domains shown)
VH: not shown
VL: B1 VL with D23K
notes: IgG4 backbone
Mean E max (%) [1]: 90%
Mean EC50 [1]: 0.104 nM
koff (human beta-Klotho (KLB)): 3.9e-05 s⁻¹

B28: 16H7 variant, light chain G24A (antibody, human IgG4 S228P, lambda, V domains shown)
VH: not shown
VL: B1 VL with D23G, G24A
notes: IgG4 backbone
Mean E max (%) [1]: 95%
Mean EC50 [1]: 0.094 nM
koff (human beta-Klotho (KLB)): 3.6e-05 s⁻¹

B29: 16H7 variant, light chain G24T (antibody, human IgG4 S228P, lambda, V domains shown)
VH: not shown
VL: B1 VL with D23G, G24T
notes: IgG4 backbone
Mean E max (%) [1]: 106%
Mean EC50 [1]: 0.139 nM
koff (human beta-Klotho (KLB)): 6.9e-05 s⁻¹

B30: 16H7 variant, light chain I27L (antibody, IgG4, V domains shown)
VH: not shown
VL: B1 VL with D23G, I27L
notes: IgG4 backbone; copies: 2 + 2
Mean E max (%) [1]: 110%
Mean EC50 [1]: 0.124 nM
koff (human beta-Klotho (KLB)): 6.2e-05 s⁻¹

B31: 16H7 variant, light chain G23L (antibody, human IgG4 S228P, lambda, V domains shown)
VH: not shown
VL: B1 VL with D23L
notes: IgG4 backbone
Mean E max (%) [1]: 106%
Mean EC50 [1]: 0.131 nM
koff (human beta-Klotho (KLB)): 9.1e-05 s⁻¹

B32: 16H7 variant, light chain G23M (antibody, human IgG4 S228P, lambda, V domains shown)
VH: not shown
VL: B1 VL with D23M
notes: IgG4 backbone
Mean E max (%) [1]: 91%
Mean EC50 [1]: 0.122 nM
koff (human beta-Klotho (KLB)): 4.1e-05 s⁻¹

B33: 16H7 variant, light chain G24N (antibody, human IgG4 S228P, lambda, V domains shown)
VH: not shown
VL: B1 VL with D23G, G24N
notes: IgG4 backbone
Mean E max (%) [1]: 103%
Mean EC50 [1]: 0.114 nM
koff (human beta-Klotho (KLB)): 1.7e-05 s⁻¹

B34: 16H7 variant, light chain G24C (antibody, human IgG4 S228P, lambda, V domains shown)
VH: not shown
VL: B1 VL with D23G, G24C
notes: IgG4 backbone
Mean E max (%) [1]: 104%
Mean EC50 [1]: 0.106 nM
koff (human beta-Klotho (KLB)): 2.2e-05 s⁻¹

B35: 16H7 variant, light chain I27D (antibody, human IgG4 S228P, lambda, V domains shown)
VH: not shown
VL: B1 VL with D23G, I27D
notes: IgG4 backbone
Mean E max (%) [1]: 107%
Mean EC50 [1]: 0.107 nM
koff (human beta-Klotho (KLB)): 4.6e-05 s⁻¹

B36: 16H7 variant, light chain G23V (antibody, human IgG4 S228P, lambda, V domains shown)
VH: not shown
VL: B1 VL with D23V
notes: IgG4 backbone
Mean E max (%) [1]: 93%
Mean EC50 [1]: 0.105 nM
koff (human beta-Klotho (KLB)): 3.9e-05 s⁻¹

B37: 16H7 variant, light chain G24S (antibody, human IgG4 S228P, lambda, V domains shown)
VH: not shown
VL: B1 VL with D23G, G24S
notes: IgG4 backbone
Mean E max (%) [1]: 121%
Mean EC50 [1]: 0.135 nM
koff (human beta-Klotho (KLB)): 8.3e-06 s⁻¹

B38: 16H7 variant, light chain G24L (antibody, human IgG4 S228P, lambda, V domains shown)
VH: not shown
VL: B1 VL with D23G, G24L
notes: IgG4 backbone
Mean E max (%) [1]: 108%
Mean EC50 [1]: 0.161 nM
koff (human beta-Klotho (KLB)): 3.4e-05 s⁻¹

B39: 16H7 variant, light chain G23S (antibody, human IgG4 S228P, lambda, V domains shown)
VH: not shown
VL: B1 VL with D23S
notes: IgG4 backbone
Mean E max (%) [1]: 120%
Mean EC50 [1]: 0.143 nM
koff (human beta-Klotho (KLB)): 1e-07 s⁻¹
